{"source": "patent US20200054719", "test_system": "thrombin-activatable fibrinolysis inhibitor (TAFI), purified", "data": [{"substance": "E-WE thrombin (E. coli derived, non-glycosylated W215A/E217A thrombin)", "values": [{"measurement": "activated TAFI, measured as hippuric acid generated from hippuryl-arginine (absorbance at 382 nm)", "result": "E-WE thrombin is a poor activator of TAFI"}]}]}
